Assay results published in the nanobody polyreactivity screen of Harvey et al. (2022).

Assay: yeast display, Sf9 membrane polyspecificity reagent, FACS + sequencing; frameworks hold sequencing errors
In short: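 Genes from sorted yeast were amplified by colony PCR, read by MiSeq 2 × 250 sequencing and filtered on CDR length. These cells carried a synthetic nanobody library in Saccharomyces cerevisiae BJ5465 and were sorted by FACS into low and high (top ~1%) gates on anti-HA and streptavidin fluorescence. Polyreactivity is labelled according to the gate of origin.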

Sequence	polyreactivity (PSR sort gate)
QVQLVESGGALVQAGGSLRLSCAASGSIFYNAMGWYRQAPGKERELVAAISWRGTRTYYADSVKGRFTISRDNAKNTVYLQMNSLKPEDTAVYYCNKDYKYGVAYTRYDYWGQGTQVTVSS	high polyreactivity
QVQLVESGGALVQAGGSLRLSCAASGSTFDDNAMGWYRQAPGKERELVASITYRGGSTYYADSVKGRFTISRDNAKNTVYLQMNSLKPEDTAVYYCAKGHYFKYDYWGQGTQVTVSS	low polyreactivity
QVQLVESGGALVQAGGSLRLSCAASGSTFNRNAMGWYRPAPGKERELVAAISSRGGSTFYADSVMGRFTISRDNATNTVYLQMNSLKPEDTAVYYCNALIVSSWVRYDYWRQGTQVTVSS	high polyreactivity
QVQLVESGGALVQAGGSLRLSCAASGSTFNRYAMGWYRQAPGKERELVAAISASGGSTYYADSVKGRFTISRDNAKNTVYLQMNSLKPEDTAVYYCATLHYVGQEHDYWGQGTQVTVSS	low polyreactivity
QVQLVESGGALVQAGGSLRLSCAASGSTFRRYAMGRYRQAPGKERELVAAISYGGGTTYYADSVKGRFTISRDNAKNTVYLQMNSLKPEDTAVYYCAARGPYGYVLLYYWGQGTQVTVSS	high polyreactivity
QVQLVESGGALVQAGGSLRLSCAASGSTIYQNAMGWYRQAPGKERELVAVISSGGSTYYADSVKGRFTISRDNAKNTVYLQMNSLKAEDTAVYYCAADRGTVSYLYSPRAVDYWGQGTQVTVSS	low polyreactivity
QVQLVESGGALVQAGGSLRLSCAASGSTYDSYSMGWYRKAPGKERELVAAITRRGTRTYYADSVKGRFTISRDNAKNTVYLQMNSLKREDTAVYYCAADRGYRLQSYGYWGQGTQVTVSS	high polyreactivity
QVQLVESGGALVQAGGSLRLSCAASGYTFSKNTMGWYRQAPGKEREFVAAINWSGGSTYYADSVKGRFTISRDNEKNTVYLQMNSLKPEDTAVYYCAARRGGRRGYDYWGQGTQVTVSS	high polyreactivity
QVQLVESGGALVQAGGSLRLSCAASRSIFSNAMGWYRQAPRKERELDAAITGRGGRTYYADSVKGRFTISRDNAKYTVYLQMNSLNPEDTAVYYCARDSPWSSRYRYRAFDYWGQGTQVTVSS	high polyreactivity
QVQLVESGGALVQAGGSLRLSCAPSGFTFMRYAMGWYRQAPGKERELDAAIRGTGTSTYYADSVKVRFTISRDNAKNTVYLQMNSLNPEDTAVYYCNKVAGRSPYTRYDYWAQGTQVTVSS	low polyreactivity
QVQLVESGGALVQAGRSLRLSCAASGSIFSSYAMGRYRQAPGKERELVAAISRSGGRTYYADSVKGRFTITRDNAKNTVYLQMNSLKTEDTAVYYCAARRVLGEYGYWGQGTQVTVSS	high polyreactivity
QVQLVESGGALVQAGVSLRLSCAASGSIFRFYAMGWNKQAPGKERELVAAITSGGSTNYADSVKGRFTISRDNEKNTVYLQMNSLKPEDTAVFYCAAELVFFFIFDYWGQGTQVTVSS	low polyreactivity
QVQLVESGGCIVQAGGSLRLSCAATGRTFYIYAMGWYRQPPGKESELVATITRGGSTNYADSVKGRFTSSRDNAKNTVYLQMNSLKPVDTAVYYCAAESYFTNWRNRYDYWGQGSQVTVSS	high polyreactivity
QVQLVESGGCIVQEGGSLRLSGAASGSTIRGNAMGWYRHAHGQEREFVADITRNGGRTYYADSVKGRFTISRDNAKNTVYLQMNSLKPEDTAVSYCAKRDAYFVSQRNMDYWGQGTQVTVSS	high polyreactivity
QVQLVESGGCLDQAGGSLRLSCAASGITFGPYAMGWYSQAPGKERELVAAITWGGGSTYYADSVKGRFTLSRDNAKNTDYLLMNSLKPEDTADYYCNAEGSTTSRYLPYDYWGQGTQVTVSS	low polyreactivity
QVQLVESGGCLFQAGGSLRLSCAASGFIFGTYAIGWYRQAPGKERELVAAISVGRGSTYYADSVKGRFTISRDNAKNTVYLQMNSLKPEDTAVYYCAAVQLYQKHQITYVAHEYWGHGTQVTVSS	low polyreactivity
QVQLVESGGCLVKAGGSLRLSCAASGSTFHYYPMGWYRQAPGKERELFAAISTSGVRTYYADSVKGRFTISRDNAKNTVYLQMNRLKPEDTAVYYCAARRGYVKGKTYDYWGQGSQVTVSS	high polyreactivity
QVQLVESGGCLVQAGGRLRLSFAASGLTFEQYAMGWYRQAPGKERELVPAISRRGTSTYYADSVKGRFTISRDNAKNTVFLQMNSLKPEDTAVYYCNAGWWYLGSPFDRDYWGQGTQVTVSS	high polyreactivity
QVQLVESGGCLVQAGGSHRLSCAASGSIFKYYTMGWYRQAPGKERELDAAITTRGTSTNYADSVKGRFTISRDNAKHTVYFQMNSLKPEDTAVYYCAARLSSLISMNYWGQGTQVTVSS	high polyreactivity
QVQLVESGGCLVQAGGSLRISCAASGLTFKGYTMGWYRQAPGKEREFVAAITGGVGSTYYADSVKGRFTISRDNAKNTVYVHMKSLQPEDTAVYYCNSVSYGYTDLYIFYTGYYYWGQGTQVTVSS	low polyreactivity

Sequence	polyreactivity (PSR sort gate)
QVQLVESGGCLVQAGGSLRLICAASGRTFIAKAMGWYRQAPGKERELVAVITLNGGSTYYADSVKGRFTISRDNAKSTVYLQMNSLKPEDTAVYYCAAGRYYNLRATHGYWGQGTQVTVSS	low polyreactivity
QVQLVESGGCLVQAGGSLRLISAASGSTFQRYAIGWYRQAPGKERELVAAITWSNGSTYYADSVKGRFTISRDNAKNTVYLQMISLKPEDTAVYYCAAEVHFGGDYWGQGTQVTVSS	low polyreactivity
QVQLVESGGCLVQAGGSLRLSCAASAFIFVGNDMGLYRQAPGKEREFVAAISSGGTTNYADSVKGRFTISRDNAKNTVYLQMNSLKPEDTAVYYCGADYDYRQGYDSVHLDYWVQGTQVTVSS	low polyreactivity
QVQLVESGGCLVQAGGSLRLSCAASGFIFAYYAMGWYRQARGKERELVAAISYSGSTKYSDSVKGRFTISRDNSKNTVNLQMNSLKPEDTAVYYCAADRVWGTPQAYVPSQFDYWGQGTQVTVSS	low polyreactivity
QVQLVESGGCLVQAGGSLRLSCAASGFILSGNTMGWYRQAPGKERELVAGINDDSSTYYADSVKGGFTISRDNAKNTVYLQMNSLKPEDTAVYYCNAGQSWYPSWYYYWGQGTQVTVSS	low polyreactivity
QVQLVESGGCLVQAGGSLRLSCAASGGIFPGNAMGWYRQAPGKERELVATISYSGGSTYYADSVKGRFTISRDNAKNTVYLQMNSLKPEDTAVYYCAARGYKPTRSRRTEYGYWGQGTQVTVSS	high polyreactivity
QVQLVESGGCLVQAGGSLRLSCAASGIIFDDYAMGWYRQAPGKERELVAAISVSGGSTYYADSVKGRFTISRDNAKNTVYLQMKSLKPEDTAVYYCAARLRQPYSRGNYWGQGTQVTVSS	high polyreactivity
QVQLVESGGCLVQAGGSLRLSCAASGIIFTLYAMGWYRQAPGKEREIVAAISGSGGSTYYADSVKGRFTISRDNAKNTVYLQMNSLKPEDTAVYYCAARGVRGTGLDSRMYYWGQGTQVTVSS	high polyreactivity
QVQLVESGGCLVQAGGSLRLSCAASGIIFYRYAMGWYRQAPGKERELVAAITYSGGRTYYADSVKARFTISRDNAKNTVYLQMNSLKTEDTAVSDCAAAGRFGDYWGQGTQVTVSS	high polyreactivity
QVQLVESGGCLVQAGGSLRLSCAASGITFGRNTMGWSRQAPGKERELVAAIDSGGNTYADSVKGRFTISRDNAKNTVYLQMNSLKPEDTAVYYCAVDGGEFSSYGYWVQGTQVTVSS	low polyreactivity
QVQLVESGGCLVQAGGSLRLSCAASGITFRYYPMGWYRQAPGKERELVATISTNGGTTYYADSVKGRFTISRDNAKNTVYLQMNSLKPEDTAVYYCNRKIYVSSARYPSEYGYWGQGTQVTVSS	high polyreactivity
QVQLVESGGCLVQAGGSLRLSCAASGLIFYTYAMGWYRQAPGKERELVASISSGGDSTYYADSVKGRFTISRDNAKNTVYLQMNSLKPEDTAVYYCNADYYYSYPYTYYYWGQGTQVTVSS	low polyreactivity
QVQLVESGGCLVQAGGSLRLSCAASGLLFYFYAMGWYRQAPGKEREFVAAISSGGDTYYADSVKGRFTISRDNSKNTVYLQMNSLKPVDTAVYYCAVGTVYLTYRGYEYWGQGTQVTVSS	high polyreactivity
QVQLVESGGCLVQAGGSLRLSCAASGNIFGIYTMGLYTHAPGKERELVASIRTGGSTNYADSVKGRFTISRDNAKNTDYLQMNSLKPEDSSVYYCNARKLFSSSYGYWGQGTQVTVSS	high polyreactivity
QVQLVESGGCLVQAGGSLRLSCAASGRIFAWYAMGWYRQAPGKERELVAAISDSGGSTYYADSVKGRFTISRDNAKNTVYLQMNSLKQEDTAVYYCAADQVVYSAYWSDHYDYWGQGTQVTVSS	low polyreactivity
QVQLVESGGCLVQAGGSLRLSCAASGRIFGVYAMGWYRQAPGKERELVAAISEGGGSTNYADSVKGRFTISRDNANNTVYLQMNSLKPEDTAVYYCAATSRTGVRRYYSWGQGTQVTVSS	low polyreactivity
QVQLVESGGCLVQAGGSLRLSCAASGRIFLPYAMVWYRQAPGKERELVASITRRGGTTYYADSVKGRFTISRDNAKNTVYLQMNSLKPADSAVYYCAKESWPYGTRGYYHYEYWGQGTQVTVSS	high polyreactivity
QVQLVESGGCLVQAGGSLRLSCAASGRIFQRYAMGWYRQAPGKERELVAGITSAGGSTYYADSVKGRFTISRDNAKNTVYLQMKRLKPEDTAVYYCNAGGELRYYGYRAGGTTRSYDYWGQGTQVTVSS	low polyreactivity
QVQLVESGGCLVQAGGSLRLSCAASGRIFRTYTMGWYRQAPGKERELVAAITWNGGSTYYADSVKGRFTISRDNAKNTVYLQMNSLKPEDTAVYYCIADRHYSAYPLYDYWGQGTQVTVSS	low polyreactivity
QVQLVESGGCLVQAGGSLRLSCAASGRIFSSYAMGWYRQAPGKERELVAAIRSSGDRTYYADSVKGRFTISRDNAKNTVYFQMNSLKPEDTAVYYCAADLRRFQSYYYWGQGTQVTVSS	high polyreactivity
